# Test results taken from paper PMC7672607.
# Columns and labels:
# Assay in all cases: flow cytometry on cells; K562/HLA-F*01:0x cells stripped of bound peptides with citrate phosphate buffer, with or without 200 µM HBB peptide (4 h, 37 °C, serum-free medium); Fc-block 20 min 4 °C; KIR3DS1-Fc 25 µg/mL, 40 min, 4 °C; detected with goat anti-human IgG Fc PE; n = 3
# [1] = biological target: HLA-F*01:01 on K562 cells loaded with the HBB peptide … (human | human (endogenous in K562))
# [2] = biological target: HLA-F*01:03 on K562 cells loaded with the HBB peptide … (human | human (endogenous in K562))
# [3] = biological target: HLA-F*01:04 on K562 cells loaded with the HBB peptide … (human | human (endogenous in K562))
substance,measurement,setting,value
recombinant KIR3DS1-Fc chimeric protein (from UniProt Q14943 22-340) (Fc fusion),percent decrease of KIR3DS1 binding against the same cells without HBB peptide,[1],36.2%
same,percent decrease of KIR3DS1 binding against the same cells without HBB peptide,[2],27.9%
same,percent decrease of KIR3DS1 binding against the same cells without HBB peptide,[3],16.5%
